Measurements published in paper PMC5986797, “Laminin heparin-binding peptides bind to several growth factors and enhance diabetic wound healing” (Nature Communications, 2018).

Columns and labels:
[1] = target: recombinant laminin LAMA3_(2928–3150) protein (human) (UniProt Q16787); experiment: SPR; LAMA3 2928–3150 immobilised by amine coupling on a C1 chip (~1000 RU); GF flown at 20 μL/min in 0.01 M HEPES pH 7.4, 0.15 M NaCl, 0.005% surfactant P20; Langmuir binding kinetics
[2] = target: recombinant human laminin-521 (human) (UniProt O15230); experiment: SPR; laminin-521 immobilised by amine coupling on a C1 chip (~2000 RU); GF flown at 20 μL/min in 0.01 M HEPES pH 7.4, 0.15 M NaCl, 0.005% surfactant P20; Langmuir binding kinetics
[3] = target: laminin peptide LAMA3_(3043–3067) (human) (UniProt Q16787)
[4] = target: laminin peptide LAMA5_(3417–3436) (human) (UniProt O15230)
Sequence of laminin peptide LAMA5_(3417–3436) (human) (O15230 3417-3436): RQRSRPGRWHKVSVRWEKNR

Sequence of laminin peptide LAMA3_(3043–3067) (human) (Q16787 3043-3067): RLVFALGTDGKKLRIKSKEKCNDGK
Sequence of recombinant laminin LAMA3_(2928–3150) protein (human) (Q16787 2928-3150): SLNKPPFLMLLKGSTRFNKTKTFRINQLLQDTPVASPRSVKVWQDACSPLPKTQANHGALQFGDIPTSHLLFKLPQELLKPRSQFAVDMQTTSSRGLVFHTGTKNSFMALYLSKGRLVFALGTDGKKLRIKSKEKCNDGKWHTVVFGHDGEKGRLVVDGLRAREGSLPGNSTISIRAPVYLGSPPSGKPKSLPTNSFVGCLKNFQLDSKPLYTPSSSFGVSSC

- Kd [1]: 1.2 nM
- Kd [2]: 5.8 nM
- cumulative release of VEGF-A165 after 5 days from a fibrin matrix with covalently incorporated α2PI1–8-LAMA3 (3043–3067) (without peptide >85% released after 24 h) [3]: 25%
- cumulative release of VEGF-A165 after 5 days from a fibrin matrix with covalently incorporated α2PI1–8-LAMA5 (3417–3436) (without peptide >85% released after 24 h) [4]: 31%
Substance: vascular endothelial cell growth factor VEGF-A165 (ligand)
